Measured values published in the nanobody polyreactivity screen of Harvey et al. (2022).

Assay: yeast display, Sf9 membrane polyspecificity reagent, FACS + sequencing; frameworks hold sequencing errors
How it was run: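 After 36–48 hours of galactose induction, yeast (Saccharomyces cerevisiae BJ5465) displaying a synthetic nanobody library were stained at 4 °C for 1 hour with 10% biotinylated, detergent-solubilized Sf9 membrane reagent. Streptavidin microbeads enriched the stained cells before FACS sorting into low and high (top ~1%) gates on anti-HA and streptavidin fluorescence. Each clone's polyreactivity label reflects its gate of origin.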

Sequence | polyreactivity (PSR sort gate)
QVQLVESGGGLVHAGGSLLLSCAASRFIFASNAMGWYRKAPAKERELVAAISSSGGRTYYADSVKGRFTISRDNAKNSVYLQMNSLKPEDTAVYYCAADWLVTYDYWGQGTQVTVSS | high polyreactivity
QVQLVESGGGLVQAGGSLRLSCAPSGITFWYYAMGWYRQAPGKERELVAAINKSGGRTYYADSVKGRFTISRDNAKNTVYLQMNSLKPEDTAVYYCAAPRSRSRTSRFDYWGQGTQVTVSS | high polyreactivity
QVQLVESGGGLVQAGGSLRLSCAASGRIFGRYTMGWYRQAPGKERELVAAISARGGSPNYADSVKGRFTISRDNAKNTVYLQLNSLIPEDTAVYYCNTVRVHGFPIDRIYDYWGQVTQVTVSS | high polyreactivity
QVQLVESGGGLVQAGGSLRLSCAASGSIFSAYAMGWYRQAPGKERELVAGISKRGGSTYYADSVKGRFTISRDNAKNTVYLQMNSLKPEDTAVYYCNAARYTVVTKLFDYWGQGTQVTVSS | high polyreactivity
QVQLVESGGGLVQAGGSLRLSCAASGRIFVSYAMGWYRQAPGKERELVAAISSSGGSTYYADSVKGRFTISRDNAKNTVYLQMNSLKPEDTAVYYCNTDQRSRMDYWGQGTQVTVSS | low polyreactivity
QVQLVESGGGLVQAGGSLRLSCAASGSIFYINTMGWYRQPPGKERELVAAINFSDGRTYYADSVKGRFTISRDNAKNTVYLQMNSLKPEDTAVYYCAADVYPSEYDYWGQGTQVTVSS | low polyreactivity
QVQLVVSGGGLVQAGGSLRLSCAASGFTFSSNAMGWYRQAPGKECELVAAISTSGASTYYADSVKGRFTISRDNAKNTVYLQMNSLKPADSAVYYCNVPQWHRWYGYPGEDYDYWGQGTQVTVSS | high polyreactivity
QVQLVESGGGLVQAGGSLRLSCAASGFTFRINAMGWYRQAPGKERELVAAISWSGGSTYYADSVKGRFTISRDNAKNTVYLQMNSLKPEDTAVYYCNKVQSSRYRSQRTFQYGYWGQGTQVTVSS | high polyreactivity
QVQLVESGGGLVQAGGSLRLSCAASGSPFKRYAMGWYRQAPGKERELVAAISSRGSSTYYADSVKGRFTISRDNAKNTVYLQMNSLKPEDTAVYYCAADRYTFWTVHSDYWGQGTQVTVSS | high polyreactivity
QVQLVESGGGLVQAGGSLRLSCAASGRTFYYYTMGWYRQPPRKEREFVAAISWSGGSKYYADSVKGRFTISRDNAKNTVYLQMNSLIPEDTAVYYCNARSFATGSKVPARGYWVQGTQVTVSS | high polyreactivity
QVQLVESGGGLVQAGGSLRLSCAASGLIFGPYAMGWYRQAPGKERELDAAITSSGGSTYNADSVKGRFTISRDNAKKSVYLQMNSLKPEDTAVYYCAARGSPRYYARYNYWGQGTQVTVSS | low polyreactivity
QVQLVESGGGLVQAGGRLRLSCAASGSTFAINAMGWYRQAPGKERELVAAITWSGGSTYYADSVKGRFTISRDNAKNTVYLQMNSLKPEDTAVYYCNAKSYRHLLYIPYKYNYWGQGTQVTVSS | high polyreactivity
QVQLVESGGGLVQAGGSLRLSCAASGSIFLYYAMGWYRQAPGKERELVAAISYSGASTYYADSVKGRFTISRDNAKNTVYLQMNSLKPEDTAVYYCARDYGQYVGEGCYWGQGTQVTVSS | low polyreactivity
QVQLVESGGGLVQAGGSLRLSCAASARIQDKYARGWYRQAPGKERELVARIRFSGGDTYADSVKGRFTISRDNAKNTVYLQMNSLKPEDTAVYYCNKDRRNRWYAFDYWGQGTQVTVSS | low polyreactivity
QVQRVESGVGLVQAGGSLRLRCAASGSIFQSYAMGWYRHAPGKERELVAAITERGGSTYYADSVKGRFTISRDNAKNTVYLQMNSLKPEDTAVYYCAAKAVGLGKSWRGDDYWGQRTQVTVSS | low polyreactivity
QVHLVESGGGLVKAGGSLRLSCSASGSIFTYNAMGWYRQAPGKERELVAAISSRGTSTYYSDSVKGRFTISRDNAKNTVYLQMNSLKPEDTAVYYCAAVWVSQRRPWGNTNNYWGQGTQVTVSS | high polyreactivity

Sequence | polyreactivity (PSR sort gate)
QVQLVESGGGLVQAGGSLRLSCAASGSIYDSYDMGWYRQAPGKERELVAAITSGGSTNYADSVKGRFTISRDNAKITVYLQMNSLKPEDTAVYYCAAYYWYPVYYGYDYWGQGTQVTVSS | low polyreactivity
QVQLVESGGGLVQAGGSLRLSCAASGSTFACNGMGWYRQAPGKERELVAGIDVTGGSTYYADSVKGRFTISRDNAKNTDYLQMNSMKPEDTAVYYCNARYVYHSSFAGFDYWGQGTQVTVSS | low polyreactivity
QVQIVESGGGLVQAGGSLRLSCAASGSTFGGNAMGWYRQAPGKERDLVAVISKRGGSKYYADSVKGRFTISRDNAKNTVYLQMNSLKPEDTAVYYCAATYSRYWSPTYDYWGQGTQVNVSS | high polyreactivity
QVQLVESGGGLVQAGGSLRLSCAASGFTFYLYTIGWYRQAPWKERELVATITSDGGTNYADSVKVRFTISRDNAKNTLYLQMNSLKPEDTAVYYCNAASRRGSRKQAKYDYWGQGTQVTVSS | low polyreactivity
QVQLVESGGGLVQAGGSLRLSCAPSGSTFTYNAMGWYRQAPGKERELVASISSGTTTYYADSVKGRFTISRDNAKNTVYLQMNSLKPEDTAVYYCAVDSWSRVQGWLAHNYDYWGQGTQVTVSS | low polyreactivity
QVQLVESGGRLVQAGGSLRLSCSASGLTFQYYAMGWYRQAPGKERELVATINSGGSTKYADSVKGRFTISRDNAKNTVYLQMNRLKPEDTAVYYCAADPYRRYRRPSRYGYWGQGTQVTVSS | high polyreactivity
QVQLVESVGGLVQAGGTLRLSCSASGSTFNVYAMGWYIQATGKERELVAAITRRGGSTYYADSVKGRFTISRDNAKNTVYLQMNSLKPEDTADYYFAARRRLDYYYYNYWGQGTQETVSS | high polyreactivity
QVQLVESGGGLVKAGGSLRLSCADSGSIFWYYTMGRYRQAPGKEREFVAAISWSGGGSTYYADSVKGRFTISRENAKYTVYLQMNSLKPEDTAVYYCNGDWTSYGFVTRLDYWGHGTQVTVSS | low polyreactivity
QVQLVESGGGLVQAGGSLRLSCAASGPTFYKYAMGWYRQAPGKEREFVATITRRGGSTYYADSVKGRFTISRDNAKNTVYLQMNSLNPEDTAVYYCAKEIFLKGPDGHDYWGQGTQVTVSS | low polyreactivity
QVQLVESGGGLVQAGGSLRLSCAASGSTFTHYAMGWYRQAPGKERELVAAISSRGGSTYADSVKGRFTISRDNAKNTVYLQMNSLKPEDTAVYYCAARYRLYYYFRFDWGQGTQVTVSS | high polyreactivity
QGQLVESGGGLVQAGGSLRLSCAASARTYGNYAMGRYREAPGKERELVADITRRGGSTSYADSVKGRFTISRDNAKNTVYLQMNSLKPEDTAVYYCNKRTTPYYSQGITRIEYDYWGQGTQVTVSS | low polyreactivity
QVQLQESGGVQAGGSLRLSSAATGYIARSDDMGWYRQAPGKERELVATINNGTITYYADSVKGRFTISRDNAKNTVYLQMNSLKPEDTAVHYCAVVQSDTDSLYYWGQGTQVSVSS | low polyreactivity
QVQLVESGGGLVQAGGSLRLSCAASGRIFTHYAMGWYRQAPGKERELVAAISRTGGTTNYADSVKGRFTISRDNAKNTVYLQMNSLKPEDTADYYCAAVGKGAKDYFKYYSWGQGTQVTVSS | high polyreactivity
QVHLVESGGGLVQAGGSLRLSCAASGRIFTFYAMGWYRQAPGKERELVAAISSSGVRTYYADSVKGRFTISRDNAKNTVYLQMNSLKPEDTAVYYCAAASRANSYRYNYWGQGTQVTVSS | high polyreactivity
QVQLVESGGGLVQAGGSLRLSCAASGSIIYRYVMGWYRQAPGKERESVAAISWRGTNTYADSVKGRFTISRDNAKNTVYLQMNSLKPEDTAVYYCAARKWDRYRDFEYWGQGTQVTVSS | high polyreactivity
